What was measured:
[1] = target: T1, Mos1 transposase (Drosophila mauritiana) (UniProt Q7JQ07); assay: cell_activity; conditions: glh-2 promoter, C. elegans germline
T1 sequence: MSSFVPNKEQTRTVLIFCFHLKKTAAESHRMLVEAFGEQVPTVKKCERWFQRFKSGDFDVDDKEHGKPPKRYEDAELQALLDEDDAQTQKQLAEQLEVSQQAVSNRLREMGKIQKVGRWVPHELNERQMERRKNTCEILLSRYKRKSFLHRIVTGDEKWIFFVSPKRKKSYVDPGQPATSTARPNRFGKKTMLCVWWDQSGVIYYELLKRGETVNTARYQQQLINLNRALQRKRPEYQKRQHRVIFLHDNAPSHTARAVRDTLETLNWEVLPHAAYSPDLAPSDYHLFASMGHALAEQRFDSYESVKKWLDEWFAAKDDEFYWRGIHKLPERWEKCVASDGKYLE

[2] = tested on: TC3A transposase (Caenorhabditis elegans); assay: cell_activity; conditions: ced-9 promoter; 0.1% with glh-2 promoter

Substance | activity (% chromosomes with catastrophic excision) [1] | activity (% germline reversion) [2]
Mos1 transposon in integrated array oxIs25 | 20.9 | 
Tc3 element in unc-22(r750::Tc3) |  | 2

Source: patent US7196244
